These results are taken from patent US20260031189A1, “METHOD AND SYSTEMS FOR PREDICTION OF HLA CLASS II-SPECIFIC EPITOPES AND CHARACTERIZATION OF CD4+ T CELLS” (BioNTech US Inc., priority 2022, published 2026).

A word on the IC50: it is the concentration that gives 50% inhibition. Read a low IC50 as greater potency.

Common to all, as to assay: FP competition with FITC probe, HLA-sDM, average
Assay [1] concerns the target HLA-DQA1*01:02/DQB1*06:02 soluble heterodimer (human), P01920.
For assay [2], the target named is T1, HLA-DRA*01:01/DRB1*15:01 soluble heterodimer (human).
T1 chain 1: not shown
T1 chain 2: not shown

In assay [3] the target is T2, HLA-DPA1*01:03/DPB1*04:01 soluble heterodimer (human), P20036.
T2 chain 1: not shown
T2 chain 2: not shown

The molecule TQQLIRAAEIRASAN (modifications not checked) [S1009-1023] yielded a 50% inhibitory concentration (IC50) in assay [1] of 520 nM.
Regarding PTESIVRFPNITNLCPF (modifications not checked) [S322-338], the IC50 in assay [2] was 26 nM.
AAATAGTTVYGAKAA (modifications not checked) came in with an IC50 in assay [1] of 1100 nM.
Still for that read-out and setting: then GGFNFSQILPDPS (modifications not checked) [S798-810], with 1200 nM.
FQTLLALHRSYLTPGDS (modifications not checked) [S238-254] came in with an IC50 in assay [2] of 140 nM.
The molecule PDKVFRSSVLHSTQDL (modifications not checked) [S39-54] registered an IC50 in assay [1] of 1600 nM.
Regarding CEFQFCNDPFLGVYYHK (modifications not checked) [S131-147], the IC50 in assay [3] amounted to 58 nM.
As for CTFEYVSQPFLMDLEGK (modifications not checked) [S166-182], in assay [3], the IC50 stood at 11 nM.
The same measure, in the same setting: then EKKYFAATKFEPLAARL (modifications not checked), with 30 nM.
In the case of CSNLLLQYGSFCTQ (modifications not checked) [S749-762], the half-inhibitory concentration (IC50) in assay [2] is 270 nM.
In turn, EIDRLNEVAKNLNES (modifications not checked) [S1182-1196] had an IC50 in assay [1] of over 50000 nM.
Take ADAGFIKQYGDCLGDIA (modifications not checked) [S829-845]: the half-maximal inhibitory concentration (IC50) in assay [2] worked out at 56 nM.
For IGINITRFQTLLA (modifications not checked) [S231-243], the results for the IC50 in assay [3] and in assay [1] were 510 nM and over 50000 nM, respectively.
In turn, LPDDFTGCVIAWNSNN (modifications not checked) [S425-440] showed an IC50 in assay [1] of 390 nM.
